The target in assay [1] is human fatty acid amide hydrolase (FAAH), amino acids 30-579, untagged (Homo sapiens, UniProt O00519). In words: SPR.
Assay [2] has as its target recombinant mouse artemin protein (Ala112-Gly224 fragment) (Mus musculus, UniProt Q9Z0L2). In words: SPR. (Surface plasmon resonance follows binding to a sensor surface in real time, without labels.)

Positions count from the first letter of the chain named.

recombinant mouse artemin protein (Ala112-Gly224 fragment), sequence (Q9Z0L2 112-224): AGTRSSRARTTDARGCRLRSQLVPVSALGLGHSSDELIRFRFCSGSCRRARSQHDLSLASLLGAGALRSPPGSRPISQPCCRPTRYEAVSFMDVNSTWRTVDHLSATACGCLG
human fatty acid amide hydrolase (FAAH), amino acids 30-579, untagged, sequence (O00519 30-579): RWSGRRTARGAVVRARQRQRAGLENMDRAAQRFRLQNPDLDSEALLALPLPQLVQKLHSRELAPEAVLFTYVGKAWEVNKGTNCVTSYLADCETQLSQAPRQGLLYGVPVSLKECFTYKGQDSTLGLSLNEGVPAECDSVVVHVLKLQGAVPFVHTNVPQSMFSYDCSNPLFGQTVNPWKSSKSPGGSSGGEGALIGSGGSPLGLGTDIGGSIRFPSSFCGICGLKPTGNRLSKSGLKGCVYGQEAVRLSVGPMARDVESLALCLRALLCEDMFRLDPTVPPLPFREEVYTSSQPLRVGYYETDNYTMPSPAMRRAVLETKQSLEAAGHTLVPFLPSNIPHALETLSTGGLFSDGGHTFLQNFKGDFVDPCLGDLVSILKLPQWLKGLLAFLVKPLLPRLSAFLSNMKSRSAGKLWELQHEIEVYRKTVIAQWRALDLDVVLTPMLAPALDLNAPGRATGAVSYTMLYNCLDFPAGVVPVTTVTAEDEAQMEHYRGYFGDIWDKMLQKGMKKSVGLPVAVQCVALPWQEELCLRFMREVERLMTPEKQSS

B1: F9 llama-VHH nanobody (affinity maturated) (VHH)
VHH: QVQLVESGGGLAQAGGSLRLSCAASGRTFSDNTMAWHRQGPGKQRGLVAFITTGGRTVYTDSVKGRFIISRDNAKNTGYLQMNSLKPEDTAVYYCFVAGNWGQGTQVTVSS
For the molecule B1, in assay [1], the dissociation constant Kd (as a rule, the equilibrium constant for the complex coming apart) was determined as 1.26 nM; the dissociation rate constant (koff) (in general, the first-order rate constant of dissociation) is 0.000214 s⁻¹; the on-rate (kon) – broadly, a measure of how fast the partners come together – was 169000 M⁻¹ s⁻¹.

B2: OD1 llama-VHH nanobody (affinity maturated) (VHH)
VHH: B1 VHH with A12V, Y79F, F96Y
In assay [1], B2 came in with an equilibrium dissociation constant (Kd) of 0.65 nM, a koff of 0.000107 s⁻¹ and an on-rate constant (kon) of 165000 M⁻¹ s⁻¹.

B3: A3 llama-VHH nanobody (original) (VHH)
VHH: B1 VHH with A12V, F96Y
Consider B3, for which, in assay [1], binding was put at a Kd of 1.56 nM, the koff is 5.7e-05 s⁻¹ and the kon was determined as 36400 M⁻¹ s⁻¹.

B4: LU68 llama-VHH nanobody (naive) (VHH)
VHH: QVQLVESGGGLVQAGGSLRLSCAASGRTLSRYAVGWFRQAPGKEREFVAVVHWNGVSTYYAEPVKGRFTISRDNAKNTVYLQMNSLKPDDTAVYYCAAATTSYVDIYTTDYDYWGQGTQVTVSS
On to B4, for which, in assay [2], the Kd was determined as 456 nM, the off-rate constant (koff) worked out at 0.023 s⁻¹ and the kon turned out to be 50000 M⁻¹ s⁻¹.

B5: LM41 llama-VHH nanobody (mutated) (VHH)
VHH: B4 VHH with Y60H
Turning to B5, in assay [2], the dissociation constant Kd is 111 nM, the koff turned out to be 0.0052 s⁻¹ and the kon came to 46000 M⁻¹ s⁻¹.

B6: LU5 llama-VHH nanobody (naive) (VHH)
VHH: QVQLVESGGGLVQAGASLRLSCAASGGTLVNSSMGWFRQAPGKERDFVATINWRGDTTWYGESVKGRFSISRDNAKNTVYLQMNSLNPEDTAVYYCAVYRTRYYTGRRMMSPDEYDVWGQGTQVTVSS
Regarding B6, in assay [2], the dissociation constant Kd turned out to be 178 nM, the koff is 0.0088 s⁻¹ and the kon worked out at 49000 M⁻¹ s⁻¹.

B7: LM52 llama-VHH nanobody (mutated) (VHH)
VHH: B6 VHH with A75T, T78M, N87K
Turning to B7, in assay [2], the dissociation constant Kd was 102 nM, the koff was 0.004 s⁻¹ and the kon was 39000 M⁻¹ s⁻¹.

For the origin of these results see article PMC9723645 (Nucleic Acids Research, 2022).
